Laboratory results published in article PMC11279866, “Synthesis, Radiolabeling, and Biodistribution Study of a Novel DOTA-Peptide for Targeting Vascular Endothelial Growth Factor Receptors in the Molecular Imaging of Breast Cancer” (Pharmaceutics, 2024).
Read-outs that look alike come from different tables or passages of the source. Where a SMILES comes first, the peptide text is derived from it. Bridges are numbered along the chain shown (N, C = ends). The star is where a group is joined. DOTA = O=C(O)CN1CCN(CC(=O)O)CCN(CC(=O)*)CCN(CC(=O)O)CC1; Ahx = NCCCCCC(=O)O

Experiments:
4T1 cells = type: binding, mouse BALB/c
Procedure: (§1) The 4T1 cell line was acquired from the Pasteur Institute of Iran (4T1 is a breast cancer cell line derived from the mammary gland tissue of a mouse BALB/c. (NCBICode: C604/the Pasteur Institute/Tehran/Iran). 4T1 cells are epithelial and can overexpress VEGFRs). The cells were cultured at 37 °C with 5% CO2 in Dulbecco’s modified Eagle’s medium (Gibco, Life Technologies, Carlsbad, CA, USA) supplemented with 10% fetal bovine serum (Gibco) and 1% antibiotics (penicillin and streptomycin). To develop tumor-bearing mice models, Balb/C mice (female, 6–8-week-old, 20–25 g) were purchased from the Institute of Biochemistry and Biophysics (IBB) (University of Tehran, Iran) and kept under the controlled conditions of temperature, humidity, and light/dark cycles with appropriate food and water (approved by the ethics committee of TUMS). Initially, the cells were harvested from the culture flask surface by 10 mM EDTA and centrifuged. After resuspending in serum-free culture medium, 1 × 10^6 cells/100 μL were injected subcutaneously into the right shoulder of mice. In the next 10 days, the tumor size was ready to use for imaging and biodistribution studies with a volume of […] [54].
A competitive binding assay was conducted to determine the value of 50% inhibitory concentration (IC50) for the [^68Ga]Ga-DOTA-Ahx-peptide, using the non-radiolabeled peptide as a competitor. […]

[1] = Ex vivo biodistribution in normal BALB/c mice; conditions: mouse, total radioactivity, mean ± SD (n = 3); for tissue uptake / tissue uptake at 0.5 h: iv, 840 kBq; for tissue uptake: healthy tissues, time point not stated; for tissue uptake at 0.5 h: normal mice
Procedure: (§2) The biodistribution of [^68Ga]Ga-DOTA-Ahx-peptide was evaluated in normal and tumor-bearing BALB/c mice. Therefore, 840 kBq in 100 μL saline was injected via the caudal vein of the mice. The animal was euthanized at different time points of 15, 30, 60, and 90 min post-injection using ketamine and xylazine in lethal doses. First, the blood sample was taken from the heart, and then organs (heart, kidney, liver, lungs, etc.) were removed. Tissues were rinsed and weighed, and the radioactivity of each organ was measured using a gamma counter. The organ uptake can be reported as the percentage of injected dose per gram of tissue (ID%/g). A 500-fold excess of DOTA-Ahx-ECRPPDDGLC was used 30 min before radiolabeled peptide injection for the blocking experiment.
Comparative biodistribution studies were conducted in healthy (Figure 7a) and subcutaneously (s.c) tumor-bearing mice (Figure 7b). […] Relatively high uptake was also observed in healthy tissues such as the spleen and intestine (3.7 ± 0.29%ID/g and 5.07 ± 0.21%ID/g, respectively). At 30 min, the highest accumulation of the radioactive compound was measured in the kidneys, which was 9.2 ± 0.53%ID/g and increased over time up to 90 min. Considering kidney uptake, this tracer is excreted mainly from this organ. The distribution profile of the [^68Ga]Ga-DOTA-Ahx-peptide in tumor-bearing mice had some similarity to the normal mice. Kidneys in tumor-bearing mice were also the critical organ with the highest radioactivity concentration at different time points (5.62 ± 0.31%ID/g at 30 min and 6.35 ± 0.54%ID/g at 90 min). This increasing profile has confirmed the quick washing-out of important organs such as the heart, lungs, liver, stomach, and intestine, which had relatively high radioactivity uptake. […] The maximum tumor uptake was 30 min after injection (1.51 ± 0.22%ID/g) and decreased by 90 min.
Figure 7 The biodistribution of the [^68Ga]Ga-DOTA-Ahx-peptide in (a) normal and (b) tumor-bearing BALB/c mice. The data are described as %ID/g, calculated at 30, 60, and 90 min after injection. The results are reported as mean ± SD (n = 3). (c) Tumor-to-organ ratio at 30, 60, and 90 min after IV injection. The uptake profile of (d) blood, (e) muscle, (f) liver, and (g) kidneys in comparison with the tumor from 15 to 90 min.

[2] = n-octanol/water partition coefficient (log p); type: physicochemical; conditions: shake-flask n-octanol/water; 100 μL radiopeptide in 0.99 mL water + 1 mL n-octanol; vortex 5 min, room temperature; centrifugation 10 min 5000 rpm; radioactivity read-out; mean ± SD (n = 3)
Procedure: A total of 100 μL of the radiolabeled peptide was aliquoted into vials containing 0.99 mL of water and 1 mL of n-octanol, which was then mixed by a vortex mixer (Mabnagene, Tehran, Iran) at room temperature for 5 min. Aqueous and organic layers were separated by centrifugation (10 min, 5000 rpm). Then, 500 μL aliquots of each layer were transferred to the new vials, and the radioactivity of both was measured in a dose calibrator (Capintec CRC®-25, Florham Park, NJ, USA).
The lipid–water partition coefficient for the [^68Ga]Ga-DOTA-Ahx-peptide was estimated in the n-octanol water system, using a […]. Approximately, the log p value was −2.17 ± 0.072, considering the below formula (Equation (2)). The result is reported as mean ± SD (n = 3). […] (2) […]

[3] = Ex vivo biodistribution in 4T1 tumor-bearing BALB/c mice, with blocking experiment; conditions: female, mouse, total radioactivity, mean ± SD (n = 3); for tissue uptake at 0.5 h: 30 min p.i.; for tissue uptake at 1.5 h: 90 min p.i.
Procedure: as §1, §2
Comparative biodistribution studies were conducted in healthy (Figure 7a) and subcutaneously (s.c) tumor-bearing mice (Figure 7b). […] At 30 min, the highest accumulation of the radioactive compound was measured in the kidneys, which was 9.2 ± 0.53%ID/g and increased over time up to 90 min. […] Kidneys in tumor-bearing mice were also the critical organ with the highest radioactivity concentration at different time points (5.62 ± 0.31%ID/g at 30 min and 6.35 ± 0.54%ID/g at 90 min). This increasing profile has confirmed the quick washing-out of important organs such as the heart, lungs, liver, stomach, and intestine, which had relatively high radioactivity uptake. […]
Figure 7 The biodistribution of the [^68Ga]Ga-DOTA-Ahx-peptide in (a) normal and (b) tumor-bearing BALB/c mice. The data are described as %ID/g, calculated at 30, 60, and 90 min after injection. […]

[4] = blood, IV 840 kBq, read-out: blood uptake
[5] = kidney, iv, 840 kBq, read-out: kidney uptake

SMILES: CC(C)C[C@@H]1NC(=O)CNC(=O)[C@H](CC(=O)O)NC(=O)[C@H](CC(=O)O)NC(=O)[C@@H]2CCCN2C(=O)[C@@H]2CCCN2C(=O)[C@H](CCCNC(=N)N)NC(=O)[C@@H](NC(=O)[C@H](CCC(=O)O)NC(=O)CCCCCNC(=O)CN2CCN(CC(=O)O)CCN(CC(=O)O)CCN(CC(=O)O)CC2)CSSC[C@@H](C(=O)O)NC1=O [[^68Ga]Ga-DOTA-Ahx-VGB3, metal not drawn] ({DOTA-Ahx}-ECRPPDDGLC-OH; disulfide 2-10)
- IC50 (4T1 cells): ~867 nM
- tissue uptake at 1.5 h ([1]; blood, healthy mice, 90 min p.i., IV 840 kBq): 0.32 ± 0.036 %ID/g
- tissue uptake ([1]; intestine, read-out: intestine uptake): 5.07 ± 0.21 %ID/g
- tissue uptake at 0.5 h ([1]; kidney, 30 min p.i., read-out: kidney uptake): 9.2 ± 0.53 %ID/g
- tissue uptake at 0.5 h ([1]; liver, 30 p.i., read-out: liver uptake (maximum)): 4.41 ± 0.56 %ID/g
- tissue uptake ([1]; spleen, read-out: spleen uptake): 3.7 ± 0.29 %ID/g
- log p (n-octanol/water partition coefficient) [2]: ~−2.17 ± 0.072
- tissue uptake at 0.5 h [3, 4]: 1.4 ± 0.18 %ID/g
- tissue uptake at 1.5 h [3, 4]: 0.22 ± 0.06 %ID/g
- tissue uptake at 0.5 h [3, 5]: 5.62 ± 0.31 %ID/g
- tissue uptake at 1.5 h [3, 5]: 6.35 ± 0.54 %ID/g
